What was measured:
[1] = molecular target: T1, cyno CD16-His6 (cyno, UniProt Q8SPW2 17-208); test: antigen ELISA, coated Cyno CD16, HRP anti-human IgG; one concentration (paragraph 202 prints 1 mg/ml)
T1 construct: Bought ECD fragment; not shown: six-histidine tag (His6)

[2] = molecular target: T2, human CD16A-His6 (V158) (human, UniProt P08637 17-208); test: antigen ELISA, coated Human CD16A (V158), HRP anti-human IgG; one concentration (paragraph 202 prints 1 mg/ml)
T2 construct: Bought (Sino Biologics) ECD fragment; also called CD16A 158V; human CD16A (V158); not shown: six-histidine tag (His6)

[3] = molecular target: T3, human CD16B-His6 (SH) (human, UniProt O75015 17-200); test: antigen ELISA, coated Human CD16B (SH), HRP anti-human IgG
T3 construct: Bought ECD fragment; also called CD16B SH allotype; human CD16B (SH); not shown: six-histidine tag (His6)

[4] = molecular target: T4, human CD16A (V158) on NK92mi cells (human, UniProt P08637 17-254); test: flow cytometry on NK92mi/CD16A cells (V158 by paragraph 201)
T4 construct: NK92mi cells co-transduced with CD16A (V158) and FcRgamma cDNAs; also called NK92mi/CD16A V158; NK92mi/CD16A

[5] = molecular target: T5, human CD16B (NA2) on NK92mi cells (human, UniProt O75015 17-200); test: flow cytometry on NK92mi/CD16B (NA2) cells
T5 construct: also called NK92mi/CD16B (NA2); NK92mi/CD16B NA2
T5 chain: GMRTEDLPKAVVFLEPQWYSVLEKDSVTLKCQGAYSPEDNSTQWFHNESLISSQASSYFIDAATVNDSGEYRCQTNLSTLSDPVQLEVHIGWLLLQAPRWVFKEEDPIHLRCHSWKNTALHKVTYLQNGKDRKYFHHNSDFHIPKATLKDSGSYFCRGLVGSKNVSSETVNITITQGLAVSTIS

[6] = molecular target: T6, human CD16B (NA1) on NK92mi cells (human, UniProt O75015 17-200); test: flow cytometry on NK92mi/CD16B (NA1) cells; fit not meaningful
T6 construct: also called NK92mi/CD16B (NA1); NK92mi/CD16B NA1
T6 chain: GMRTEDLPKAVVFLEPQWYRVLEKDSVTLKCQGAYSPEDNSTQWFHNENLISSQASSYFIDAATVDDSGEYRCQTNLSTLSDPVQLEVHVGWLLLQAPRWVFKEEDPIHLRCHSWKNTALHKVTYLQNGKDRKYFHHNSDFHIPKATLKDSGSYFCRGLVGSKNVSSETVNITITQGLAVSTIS

T1 sequence (Q8SPW2 17-208): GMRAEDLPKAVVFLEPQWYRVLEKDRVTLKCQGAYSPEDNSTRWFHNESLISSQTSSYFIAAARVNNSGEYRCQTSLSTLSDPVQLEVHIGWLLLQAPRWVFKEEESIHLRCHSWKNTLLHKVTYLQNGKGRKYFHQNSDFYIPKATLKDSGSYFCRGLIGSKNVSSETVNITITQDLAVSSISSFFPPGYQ

B1: LS21 (scFv)
scFv: EVQLVQSGAEVKKPGESLKVSCKASGYTFTSYYMHWVRQAPGQGLEWMGIINPSGGSTSYAQKFQGRVTMTRDTSTSTVYMELSSLRSEDTAVYYCARGSAYYYDFADYWGQGTLVTVSSGGGGSGGGGSGGGGSQPVLTQPSSVSVAPGQTATISCGGHNIGSKNVHWYQQRPGQSPVLVIYQDNKRPSGIPERFSGSNSGNTATLTISGTQAMDEADYYCQVWDNYSVLFGGGTKLTVL
binding result [1]: binds | binding result [2]: binds | binding result [3]: no binding | EC50 [4]: 1.04 µg/mL | EC50 [5]: 0.136 µg/mL | EC50 [6]: ~155000 µg/mL

Source: patent publication US20250075002A1 (BEIGENE SWITZERLAND, published 2025)
